The text below walks through data of patent US11499162B2, “Plants having increased tolerance to herbicides” (BASF SE, priority 2016, dated 2022).

First the molecules themselves.
B1: Q71LV91A: mutated TriA variant of SEQ ID NO: 2 (protein)
chain: MQTLSIQHGTLVTMDQYRRVLGDSWVHVQDGRIVALGVHAESVPPPADRVIDARGKVVLPGFINAHTHVNLILLRGGPSHGRQLYDWLFNALYPGQKAMRPEDVAVAVRLYCAEAVRSGITTINDNADSAIYPGNIEAAMAVYGEVGVRVVYARMFFDRMDGRIQGYVDALKARSPQVELCSIMEETAVAKDRITALSDQYHGTAGGRISVWPAPAITPAVTVEGMRWAQAFARDRAVMWTLHMAESDHDERLHWMSPAEYMECYGLLDERLQVAHCVYFDRKDVRLLHRHNVKVASQVVSNAYLGSGVAPVPEMVERGMAVGIGTDDGNCNDSVNMIGDMKFMAHIHRAVHRDADVLTPEKILEMATIDGARSLGMDHEIGSIETGKRADLILLDLRHPQTTPHHHLAATIVFQAYGNEVDTVLIDGNVVMENRRLSFLPPERELAFLEEAQSRATAILQRANMVANPAWRSL
modifications: Pseudomonas
B2: Q96E: mutated TriA variant of SEQ ID NO: 2 (protein)
chain: B1 chain with L71Q, A91V, Q96E
modifications: Pseudomonas
B3: Q71LL88AV91AL92V: mutated TriA variant of SEQ ID NO: 2 (protein)
chain: B1 chain with L88A, L92V
modifications: Pseudomonas
B4: R82G: mutated TriA variant of SEQ ID NO: 2 (protein)
chain: B1 chain with L71Q, R82G, A91V
modifications: Pseudomonas
B5: N126A: mutated TriA variant of SEQ ID NO: 2 (protein)
chain: B1 chain with L71Q, A91V, N126A
modifications: Pseudomonas
B6: Q71LL88AV91AL92VF157L: mutated TriA variant of SEQ ID NO: 2 (protein)
chain: B1 chain with L88A, L92V, F157L
modifications: Pseudomonas
B7: M155G: mutated TriA variant of SEQ ID NO: 2 (protein)
chain: B1 chain with L71Q, A91V, M155G
modifications: Pseudomonas
B8: N126S: mutated TriA variant of SEQ ID NO: 2 (protein)
chain: B1 chain with L71Q, A91V, N126S
modifications: Pseudomonas
B9: Q96D: mutated TriA variant of SEQ ID NO: 2 (protein)
chain: B1 chain with L71Q, A91V, Q96D
modifications: Pseudomonas
B10: V69L: mutated TriA variant of SEQ ID NO: 2 (protein)
chain: B1 chain with V69L, L71Q, A91V
modifications: Pseudomonas
B11: V69S: mutated TriA variant of SEQ ID NO: 2 (protein)
chain: B1 chain with V69S, L71Q, A91V
modifications: Pseudomonas
B12: N70LQ71IL74A: mutated TriA variant of SEQ ID NO: 2 (protein)
chain: B1 chain with N70L, L71I, L74A, A91V
modifications: Pseudomonas
B13: Q71LV91AL92V: mutated TriA variant of SEQ ID NO: 2 (protein)
chain: B1 chain with L92V
modifications: Pseudomonas
B14: V69A: mutated TriA variant of SEQ ID NO: 2 (protein)
chain: B1 chain with V69A, L71Q, A91V
modifications: Pseudomonas
B15: N126M: mutated TriA variant of SEQ ID NO: 2 (protein)
chain: B1 chain with L71Q, A91V, N126M
modifications: Pseudomonas
B16: N126D: mutated TriA variant of SEQ ID NO: 2 (protein)
chain: B1 chain with L71Q, A91V, N126D
modifications: Pseudomonas
B17: L88AF157L: mutated TriA variant of SEQ ID NO: 2 (protein)
chain: B1 chain with L71Q, L88A, A91V, F157L
modifications: Pseudomonas
B18: D128N: mutated TriA variant of SEQ ID NO: 2 (protein)
chain: B1 chain with L71Q, A91V, D128N
modifications: Pseudomonas
B19: L88AF157I: mutated TriA variant of SEQ ID NO: 2 (protein)
chain: B1 chain with L71Q, L88A, A91V, F157I
modifications: Pseudomonas
B20: R82L: mutated TriA variant of SEQ ID NO: 2 (protein)
chain: B1 chain with L71Q, R82L, A91V
modifications: Pseudomonas
B21: R82M: mutated TriA variant of SEQ ID NO: 2 (protein)
chain: B1 chain with L71Q, R82M, A91V
modifications: Pseudomonas
B22: D128A: mutated TriA variant of SEQ ID NO: 2 (protein)
chain: B1 chain with L71Q, A91V, D128A
modifications: Pseudomonas
B23: D128S: mutated TriA variant of SEQ ID NO: 2 (protein)
chain: B1 chain with L71Q, A91V, D128S
modifications: Pseudomonas
B24: Q96N: mutated TriA variant of SEQ ID NO: 2 (protein)
chain: B1 chain with L71Q, A91V, Q96N
modifications: Pseudomonas
B25: Q96A: mutated TriA variant of SEQ ID NO: 2 (protein)
chain: B1 chain with L71Q, A91V, Q96A
modifications: Pseudomonas
B26: L74V: mutated TriA variant of SEQ ID NO: 2 (protein)
chain: B1 chain with L71Q, L74V, A91V
modifications: Pseudomonas
B27: L74A: mutated TriA variant of SEQ ID NO: 2 (protein)
chain: B1 chain with L71Q, L74A, A91V
modifications: Pseudomonas

Changes are numbered by the printed parent chain. Names may count otherwise.

The data set is classed as biochemical. Conditions: pH 7.2. The method, boiled down: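 Expression: BL21(DE3) Gold, pET24d N-His, pGro7, 0.1 mM IPTG, 25° C, 20 h. Reaction: 25 mM Na phosphate pH 7.2, substrate 1 nM to 10 nM, 30° C. Analysis: UPLC-HR-MS; % degradation vs empty vector.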
As to B1, the “Degradation in % of 6-cyclopentyl-N4-(2,3,4,5,6-pentafluorophenyl)-1,3,5-triazine-2,4-diamine” value was determined as 0% and the “Degradation in % of Melamine” value is 0%.

As to B2, the “Degradation in % of 6-cyclopentyl-N4-(2,3,4,5,6-pentafluorophenyl)-1,3,5-triazine-2,4-diamine” value is given as 0% and the “Degradation in % of Melamine” value amounted to 0%.

For B3, the “Degradation in % of 6-cyclopentyl-N4-(2,3,4,5,6-pentafluorophenyl)-1,3,5-triazine-2,4-diamine” value is 1% and the “Degradation in % of Melamine” value is given as 0%.

As for B4, the “Degradation in % of 6-cyclopentyl-N4-(2,3,4,5,6-pentafluorophenyl)-1,3,5-triazine-2,4-diamine” value is on record as 0% and the “Degradation in % of Melamine” value was 0%.

Take B5: the “Degradation in % of 6-cyclopentyl-N4-(2,3,4,5,6-pentafluorophenyl)-1,3,5-triazine-2,4-diamine” value amounted to 4% and the “Degradation in % of Melamine” value was 2%.

For B6, the “Degradation in % of 6-cyclopentyl-N4-(2,3,4,5,6-pentafluorophenyl)-1,3,5-triazine-2,4-diamine” value stood at 1% and the “Degradation in % of Melamine” value came out at 4%.

On to B7, for which the “Degradation in % of 6-cyclopentyl-N4-(2,3,4,5,6-pentafluorophenyl)-1,3,5-triazine-2,4-diamine” value worked out at 0% and the “Degradation in % of Melamine” value is 4%.

As for B8, the “Degradation in % of 6-cyclopentyl-N4-(2,3,4,5,6-pentafluorophenyl)-1,3,5-triazine-2,4-diamine” value was 1% and the “Degradation in % of Melamine” value turned out to be 2%.

For B9, the “Degradation in % of 6-cyclopentyl-N4-(2,3,4,5,6-pentafluorophenyl)-1,3,5-triazine-2,4-diamine” value turned out to be 4% and the “Degradation in % of Melamine” value is reported as 0%.

As for B10, the “Degradation in % of 6-cyclopentyl-N4-(2,3,4,5,6-pentafluorophenyl)-1,3,5-triazine-2,4-diamine” value is reported as 0% and the “Degradation in % of Melamine” value came out at 0%.

With B11, the “Degradation in % of 6-cyclopentyl-N4-(2,3,4,5,6-pentafluorophenyl)-1,3,5-triazine-2,4-diamine” value worked out at 3% and the “Degradation in % of Melamine” value is listed as 5%.

As to B12, the “Degradation in % of 6-cyclopentyl-N4-(2,3,4,5,6-pentafluorophenyl)-1,3,5-triazine-2,4-diamine” value is 0% and the “Degradation in % of Melamine” value turned out to be 2%.

Take B13: the “Degradation in % of 6-cyclopentyl-N4-(2,3,4,5,6-pentafluorophenyl)-1,3,5-triazine-2,4-diamine” value is 3% and the “Degradation in % of Melamine” value is given as 7%.

In the case of B14, the “Degradation in % of 6-cyclopentyl-N4-(2,3,4,5,6-pentafluorophenyl)-1,3,5-triazine-2,4-diamine” value is given as 0% and the “Degradation in % of Melamine” value was found to be 5%.

As for B15, the “Degradation in % of 6-cyclopentyl-N4-(2,3,4,5,6-pentafluorophenyl)-1,3,5-triazine-2,4-diamine” value came to 0% and the “Degradation in % of Melamine” value is listed as 3%.

As to B16, the “Degradation in % of 6-cyclopentyl-N4-(2,3,4,5,6-pentafluorophenyl)-1,3,5-triazine-2,4-diamine” value turned out to be 0% and the “Degradation in % of Melamine” value is on record as 0%.

Consider B17, for which the “Degradation in % of 6-cyclopentyl-N4-(2,3,4,5,6-pentafluorophenyl)-1,3,5-triazine-2,4-diamine” value is on record as 0% and the “Degradation in % of Melamine” value was 2%.

For B18, the “Degradation in % of 6-cyclopentyl-N4-(2,3,4,5,6-pentafluorophenyl)-1,3,5-triazine-2,4-diamine” value is on record as 2% and the “Degradation in % of Melamine” value amounted to 0%.

For B19, the “Degradation in % of 6-cyclopentyl-N4-(2,3,4,5,6-pentafluorophenyl)-1,3,5-triazine-2,4-diamine” value was found to be 0% and the “Degradation in % of Melamine” value came out at 0%.

Take B20: the “Degradation in % of 6-cyclopentyl-N4-(2,3,4,5,6-pentafluorophenyl)-1,3,5-triazine-2,4-diamine” value came out at 1% and the “Degradation in % of Melamine” value was determined as 1%.

In the case of B21, the “Degradation in % of 6-cyclopentyl-N4-(2,3,4,5,6-pentafluorophenyl)-1,3,5-triazine-2,4-diamine” value is 2% and the “Degradation in % of Melamine” value is given as 2%.

As for B22, the “Degradation in % of 6-cyclopentyl-N4-(2,3,4,5,6-pentafluorophenyl)-1,3,5-triazine-2,4-diamine” value was determined as 5% and the “Degradation in % of Melamine” value is listed as 3%.

B23: the “Degradation in % of 6-cyclopentyl-N4-(2,3,4,5,6-pentafluorophenyl)-1,3,5-triazine-2,4-diamine” value is listed as 0% and the “Degradation in % of Melamine” value amounted to 0%.

On to B24, for which the “Degradation in % of 6-cyclopentyl-N4-(2,3,4,5,6-pentafluorophenyl)-1,3,5-triazine-2,4-diamine” value is on record as 2% and the “Degradation in % of Melamine” value was 2%.

As to B25, the “Degradation in % of 6-cyclopentyl-N4-(2,3,4,5,6-pentafluorophenyl)-1,3,5-triazine-2,4-diamine” value worked out at 0% and the “Degradation in % of Melamine” value is 0%.

B26: the “Degradation in % of 6-cyclopentyl-N4-(2,3,4,5,6-pentafluorophenyl)-1,3,5-triazine-2,4-diamine” value is recorded as 0% and the “Degradation in % of Melamine” value is on record as 3%.

Regarding B27, the “Degradation in % of 6-cyclopentyl-N4-(2,3,4,5,6-pentafluorophenyl)-1,3,5-triazine-2,4-diamine” value amounted to 1% and the “Degradation in % of Melamine” value is on record as 0%.
